# In US20030082668:
# T1: Boc-Val-Leu-(Ac)Lys-MCA
# T1 sequence: VLK
# T2: Boc-Val-Leu-Lys-MCA
# T2 sequence: VLK
# T3: Nma-VGAK(Ac)RHSK(Dnp)-NH2
# T3 sequence: VGAKRHSK
# T4: Nma-VGAK(Ac)RHSK(Dnp)-NH2
# T4 chain: VGAKRHSK
# What was measured:
# Boc-Val-Leu-(Ac)Lys-MCA = test system: T1, Boc-Val-Leu-(Ac)Lys-MCA
# Boc-Val-Leu-Lys-MCA = test system: T2, Boc-Val-Leu-Lys-MCA
# [1] = test system: T3, Nma-VGAK(Ac)RHSK(Dnp)-NH2
# [2] = biological target: T4, Nma-VGAK(Ac)RHSK(Dnp)-NH2
Molecule,peptide cleavage activity (fluorescence intensity of released AMC) (Boc-Val-Leu-(Ac)Lys-MCA),peptide cleavage activity (fluorescence intensity of released AMC) (Boc-Val-Leu-Lys-MCA),peptide cleavage (fluorescence intensity) [1],"NAD-dependent deacetylase activity (fluorescence intensity, lysylendopeptidase-coupled assay) [2]","deacetylase activity (fluorescence intensity, lysylendopeptidase-coupled assay) [2]"
plasmin,did not cleave Boc-Val-Leu-(Ac)Lys-MCA,digested Boc-Val-Leu-Lys-MCA,,,
lysylendopeptidase,did not cleave Boc-Val-Leu-(Ac)Lys-MCA,digested Boc-Val-Leu-Lys-MCA,"In the absence of recombinant SIRT1, the fluorescence intensity did not increase, namely, the fluorescent substrate was not cleaved off by LEP at all.",,
recombinant SIRT1 (GST fused to the amino terminal end) (protein) MADEAALALQPGGSPSAAGADREAASSPAGEPLRKRPRRDGPGLERSPGEPGGAAPEREVPAAARGCPGAAAAALWREAEAEAAAAGGEQEAQATAAAGEGDNGPGLQGPSREPPLADNLYDEDDDDEGEEEEEAAAAAIGYRDNLLFGDEIITNGFHSCESDEEDRASHASSSDWTPRPRIGPYTFVQQHLMIGTDPRTILKDLLPETIPPPELDDMTLWQIVINILSEPPKRKKRKDINTIEDAVKLLQECKKIIVLTGAGVSVSCGIPDFRSRDGIYARLAVDFPDLPDPQAMFDIEYFRKDPRPFFKFAKEIYPGQFQPSLCHKFIALSDKEGKLLRNYTQNIDTLEQVAGIQRIIQCHGSFATASCLICKYKVDCEAVRGDIFNQVVPRCPRCPADEPLAIMKPEIVFFGENLPEQFHRAMKYDKDEVDLLIVIGSSLKVRPVALIPSSIPHEVPQILINREPLPHLHFDVELLGDCDVIINELCHRLGGEYAKLCCNPVKLSEITEKPPRTQKELAYLSELPPTPLHVSEDSSSPERTSPPDSSVIVTLLDQAAKSNDDLDVSESKGCMEEKPQEVQTSRNVESIAEQMENPDLKNVGSSTGEKNERTSVAGTVRKCWPNRVAKEQISRRLDGNQYLFLPPNRYIFHGAEVYSDSEDDVLSSSSCGSNSDSGTCQSPSLEEPMEDESEIEEFYNGLEDEPDVPERAGGAGFGTDGDDQEAINEAISVKQEVTDMNYPSNKS,,,,"the fluorescence intensity increased in an NAD concentration-dependent fashion. In the absence of NAD, regardless of the presence of the recombinant SIRT1, the fluorescence intensity did not increase",the fluorescence intensity increased was proportional to the recombinant SIRT1 concentration
